A short description of this data set: protein stability index of a GFP-peptide fusion (GPS, HEK-293T) (PSI 1-6); higher = more stable.
[1] abbreviates: treatment: DMSO, c terminus: a fixed tail appended.
The mark [2] stands for this setting: treatment: MLN4924 1 uM, 8 h, c terminus: a fixed tail appended.
The mark [3] stands for this setting: treatment: DMSO, c terminus: native.
Where [4] appears, read: treatment: MLN4924 1 uM, 8 h, c terminus: native.

± gives the standard deviation.
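Also: 24-mer peptide tiles fused after GFP, lentivirally expressed, FACS-sorted into six equal bins by GFP/DsRed ratio, decoded by Illumina sequencing, PSI is the read-weighted mean bin number.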

As to SPALQVMGPAQEAPVAEAWIPQAG [ZNF449], the protein stability index is, setting by setting: under setting [1], 4.6 ± 0.086; under setting [2], 4.65 ± 0.27.

As for WPFSMDCTGTEAHISSCKLGPQVS [LOXL2], the protein stability index reads like this: under setting [1], 3.02 ± 0.25; under setting [2], 3.08 ± 0.34. With DLAYQLQVAKTKQQIEEQRVQVQV [FLOT1], the protein stability index came out at 3.4 ± 0.19 under setting [1] and 3.73 ± 0.22 under setting [2]. With VNSYYSSPAQQVPKNPALEAFLAQ [TOR1AIP2], the protein stability index is, setting by setting: under setting [1], 3.45 ± 0.36; under setting [2], 3.66 ± 0.25.

On to DLHRQFPFHEMFVSRGGHGQQDLF [TBC1D10A], for which the protein stability index worked out at 2.73 ± 0.17 under setting [1] and 2.8 ± 0.34 under setting [2]. In the case of VASEMRFVQDLVRALEQEKLQGVE [DAPK3], the protein stability index by setting is: under setting [1], 4.42 ± 0.44; under setting [2], 4.73 ± 0.37.

Turning to SDPCGQLRPTLLLTSLHHFMHSRN [PNLIPRP1], the protein stability index worked out at 2.3 ± 0.35 under setting [1] and 2.6 ± 0.24 under setting [2].

HVDSIKFCGATIAGLSLLSPSVMR [ALKBH7] displayed a protein stability index under setting [1] of 2.2 ± 0.81 and a protein stability index under setting [2] of 2.19 ± 0.39. The like results for GKLKWNLAAVTPHDFIEHILRKLP [CCND2] were, in that order, 2.61 ± 0.38 and 2.16 ± 0.18. Consider GNNLLVFGGTGIPFGESNGNGVHV [KLHDC10], for which the protein stability index stood at 2.66 ± 0.36 under setting [1] and 2.71 ± 0.41 under setting [2]. Sequence RKPSVPWQRQMDQPQDRNQALGTH [RASAL3] displayed a protein stability index under setting [1] of 4.08 ± 0.16 and a protein stability index under setting [2] of 4.21 ± 0.19.

Take GRFEQLGKTAASWCLHVNNWLQVS [FSD1]: the protein stability index reads like this: under setting [1], 2.29 ± 0.37; under setting [2], 1.96 ± 0.2. Turning to HVRQGVFSSLNHIVEKRVLAHLAP [INTS3], the protein stability index runs as follows: under setting [1], 2.32 ± 0.21; under setting [2], 2.41 ± 0.12. Consider RSLLRLRATRAGAAEEPGVRGLLA [C2CD2L], for which the protein stability index is, setting by setting: under setting [1], 3.17 ± 0.43; under setting [2], 3.44 ± 0.18. As to AVSVMKKCRKLEDPQSSSQVTTS [SLC19A2], the protein stability index was determined as 4.36 ± 0.23 under setting [3] and 4.37 ± 0.19 under setting [4]. Take RTSCSSRPCVPPSCHGYTLPGACN [KRT33B]: the protein stability index under setting [1] is 2.67 ± 0.3 and the protein stability index under setting [2] was found to be 2.56 ± 0.17.

As to ICEQAEYHMFQREKVEVQLPELFH [KCNAB2], the protein stability index reads like this: under setting [1], 3.17 ± 0.24; under setting [2], 3.06 ± 0.29.

With RETNKSRGFAFVTFESPADAKDAA [RBMX], the protein stability index is, setting by setting: under setting [1], 4.34 ± 0.32; under setting [2], 4.39 ± 0.38. Take RLLKTLETSRSHDLEAVVPQNGSE [ATP23]: the protein stability index is, setting by setting: under setting [1], 4 ± 0.23; under setting [2], 4.09 ± 0.19. The sequence KDLSNTFAKLEKLTILAKRKSLFD [STX5] registered a protein stability index under setting [1] of 2.45 ± 0.16 and a protein stability index under setting [2] of 2.51 ± 0.32. The sequence PDGVCLSGGRGPQGDKAIREQGPR [PBXIP1] showed a protein stability index under setting [1] of 5.21 ± 0.14 and a protein stability index under setting [2] of 4.88 ± 0.35. Take ANIEEVLQRGEALSALDSKANNLS [SEC22B]: the protein stability index is 4.94 ± 0.16 under setting [1] and 4.89 ± 0.18 under setting [2]. SERCQRQLQSLCRGLGLGGRRLKS [FANCE] came in with a protein stability index under setting [1] of 3.22 ± 0.36 and a protein stability index under setting [2] of 3.49 ± 0.47. As to APPTPPEEEDLRRRLKYFFMSPCD [MCOLN1], the protein stability index under setting [1] was determined as 4.27 ± 0.23 and the protein stability index under setting [2] amounted to 4.15 ± 0.23. Consider LLDEIVPVYRRDCHEEVYAGSHQY [ACBD3], for which the protein stability index by setting is: under setting [1], 3.03 ± 0.13; under setting [2], 3.13 ± 0.26. On to QYEKMAEKNRKDAEDWFFSKTEEL [KRT17], for which the protein stability index is, setting by setting: under setting [1], 4.68 ± 0.18; under setting [2], 4.86 ± 0.18.

For EAQAFRALVQEKIQKRNQRQSGDR [WAS], the protein stability index is, setting by setting: under setting [1], 4.5 ± 0.12; under setting [2], 4.5 ± 0.13. DFYREDEDEEEEEGGEGEKEGEGE [TRIM55]: the protein stability index runs as follows: under setting [1], 5.57 ± 0.57; under setting [2], 5.79 ± 0.084. YRQVPGSDPARYEFLWGPRAHAEI [MAGEA10]: the protein stability index worked out at 2.73 ± 0.24 under setting [1] and 2.91 ± 0.26 under setting [2]. In turn, GRWLRSTRFSGSLDRLRETRVAD [PCDHGC5] displayed a protein stability index under setting [3] of 2.62 ± 0.48 and a protein stability index under setting [4] of 2.84 ± 0.14. Turning to APTMLHNSSGDFSQAHSTLKLANH [TRAF3IP2], the protein stability index by setting is: under setting [1], 4.02 ± 0.19; under setting [2], 4.18 ± 0.34.

With MASLLEDLSHIEGLSQAPQPLADE [SERTAD1], the protein stability index amounted to 4.82 ± 0.092 under setting [1] and 4.72 ± 0.1 under setting [2]. As for FLLCARSLLRGFLLQNEFVGFMWR [MCOLN1], the protein stability index is, setting by setting: under setting [1], 2.55 ± 0.34; under setting [2], 2.39 ± 0.79. For SLLGLLSFPRNNISYLVLSMISMG [JAGN1], the protein stability index by setting is: under setting [1], 3.11 ± 0.33; under setting [2], 3.01 ± 0.71. The sequence RGIIMTFGSGSNGCLGHGSLTDIS [NEK8] gave a protein stability index under setting [1] of 2.45 ± 0.22 and a protein stability index under setting [2] of 2.4 ± 0.31. As to DEALERCQILELLNAELEEKMMQE [CCDC89], the protein stability index by setting is: under setting [1], 5.17 ± 0.41; under setting [2], 5.34 ± 0.22. Sequence CSGVACLVKDNPQRSYFLRIFDIK [WASL] had a protein stability index under setting [1] of 2.16 ± 0.34 and a protein stability index under setting [2] of 2.27 ± 0.7. On to QITSRVVSAATQLRHFFLVEDLVD [RTN2], for which the protein stability index is, setting by setting: under setting [1], 2.83 ± 0.24; under setting [2], 3 ± 0.27. QVAPLTHVFQRQKSELSDGIAILV [TRIM55]: the protein stability index under setting [1] amounted to 2.26 ± 0.49 and the protein stability index under setting [2] was determined as 2.26 ± 0.22.

As to MVKEPVEDTDPSTLSFNMSDKYPI [EDARADD], the protein stability index runs as follows: under setting [1], 4.37 ± 0.43; under setting [2], 4.5 ± 0.29. The like results for KAQQEFAAGVFSNPAVRTAAANAA [SCAMP3] were, in that order, 4.13 ± 0.11 and 4.11 ± 0.24.

For the sequence GGMSHLHTFRATFQEPLYPALRLW [TRIM14], the protein stability index worked out at 2.21 ± 0.22 under setting [1] and 2.13 ± 0.091 under setting [2]. With GFDTDGLSSAVWPGGETEALTRLE [CRY1], the protein stability index by setting is: under setting [1], 4.54 ± 0.73; under setting [2], 4.76 ± 0.29. For ELERCRQQAGLLVTGEKEEPSRSA [PPEF2], the protein stability index was found to be 4.95 ± 0.27 under setting [1] and 5.11 ± 0.86 under setting [2].

Sequence REAKMICFKSVAKTPYDTSRRQEK [ELOA2] yielded a protein stability index under setting [1] of 3.97 ± 0.22 and a protein stability index under setting [2] of 4.11 ± 0.58. In the case of AEEGWSPTPKCLRLCFFPFVENGH [CFHR2], the protein stability index is 1.96 ± 0.28 under setting [1] and 2.12 ± 0.32 under setting [2]. Regarding NKQKCVERNEVRNVFKELQIMQGL [STK32A], the protein stability index is 2.94 ± 0.4 under setting [1] and 2.93 ± 0.24 under setting [2]. For YANLALSGLIEIQSYPLCIYLINQ [SLC22A15] the same measures were 3.9 ± 0.46 and 3.34 ± 0.19. Turning to RPSRSGAQQLEEEGPMEEEEAQPM [EID1], the protein stability index by setting is: under setting [1], 5.66 ± 0.25; under setting [2], 5.53 ± 0.2. The like results for IKSEDMLKILKPSIPLERIHFDSY [FBXO33] were, in that order, 2.43 ± 0.23 and 2.36 ± 0.29. Under setting [1], LVACCLADIFRIYAPEAPYTSPDK [PDS5B] yielded a protein stability index of 3.3 ± 1.4. Regarding CMDQERLRRESTSQKEMDKAETKT [FCHO1], the protein stability index reads like this: under setting [1], 5.15 ± 0.65; under setting [2], 5.21 ± 0.14.

As for AIQGISEKEKAEIEAKEACDWLRA [DLC1], the protein stability index runs as follows: under setting [1], 4.69 ± 0.42; under setting [2], 4.72 ± 0.39.

As for IKYFRVDFYEAMDDYTSAIEVQPN [TTC32], the protein stability index under setting [1] worked out at 2.48 ± 0.51 and the protein stability index under setting [2] amounted to 2.1 ± 0.46. The like results for GVDSMAEEGTSDSNTGSESNSATV [SMARCE1] were, in that order, 5.41 ± 0.14 and 5.57 ± 0.41. Turning to SWEVVTSMGTQRCDAGVCVLREK [KLHL12], the protein stability index runs as follows: under setting [3], 2.89 ± 0.46; under setting [4], 3.17 ± 0.41. Take EAAEGRNKNEVFYQCPDQMARNPA [FBXO3]: the protein stability index under setting [1] turned out to be 5 ± 0.32 and the protein stability index under setting [2] was found to be 4.67 ± 0.52. Turning to SSFIKTEPSSPASLTDSVNHHSPG [ESRRG], the protein stability index by setting is: under setting [1], 4.79 ± 0.17; under setting [2], 4.9 ± 0.18. The like results for LLHLDLKPANILLDAHYHVKISDF [RIPK4] were, in that order, 2.45 ± 0.32 and 2.36 ± 0.48.

On to LEFRSFWELIGEAAKSVKLERPVR [S100A14], for which the protein stability index reads like this: under setting [1], 1.87 ± 0.2; under setting [2], 2.33 ± 0.35. On to YSFVLTNRGNSAGGLQHRVTAKTA [PTPRD], for which the protein stability index stood at 2.81 ± 0.29 under setting [1] and 2.97 ± 0.28 under setting [2]. For VGGTIRTCQKFLIQYNRRQLLILL [POP5], the protein stability index stood at 2.96 ± 0.47 under setting [1] and 2.64 ± 0.67 under setting [2].

In the case of AIVDLISRQYDKFLTHFILMNDVI [FBXO33], the protein stability index under setting [1] was 3.1 ± 0.45 and the protein stability index under setting [2] came out at 3.36 ± 0.28. On to MCPLYDPNRQLWIELAPLSMPRIN [GAN], for which the protein stability index came out at 2.22 ± 0.11 under setting [1] and 2.23 ± 0.28 under setting [2]. As for KREMILKRKEEEALKDSLRPKLSE [VDR], the protein stability index under setting [1] amounted to 4.82 ± 0.28 and the protein stability index under setting [2] turned out to be 5.24 ± 0.24. HSKASLPTGEGSISHEEQKSVRLA [CHCHD6]: the protein stability index was 5.14 ± 0.2 under setting [1] and 5.15 ± 0.17 under setting [2]. In the case of VRKVPPGYSIKVFDFERSGLQHAP [SMAD6], the protein stability index is 2.31 ± 0.33 under setting [1] and 2.63 ± 0.035 under setting [2]. On to EFGALMSNYSLPPPLPTYHVLLEG [TRIM29], for which the protein stability index by setting is: under setting [1], 2.7 ± 0.98; under setting [2], 2.15 ± 0.33. Regarding SNSSQDSLHKGAKRKGIKSSIGRL [PPFIA4], the protein stability index runs as follows: under setting [1], 4.17 ± 0.22; under setting [2], 4.22 ± 0.16. Regarding KGGYKEFFPQHPNFCEPQDYRPMN [CDC25B], the protein stability index runs as follows: under setting [1], 3.52 ± 0.18; under setting [2], 3.37 ± 0.2. In the case of QERERVLTHFSRRYCQCNPDDSTS [PSD2], the protein stability index was 3.88 ± 0.14 under setting [1] and 3.93 ± 0.14 under setting [2]. The like results for VKKNSAKSMGLKKKAFVWARNIGF [ACSBG2] were, in that order, 2.03 ± 0.12 and 2.24 ± 0.22.

For the origin of these results see the supplement of paper PMC10567573.
